Experimental data published in PMC10563049.

Biological target: recombinant VE-cadherin-Fc (UniProt P33151)
Assay: atomic force microscopy

Substance: recombinant VE-cadherin-Fc (from UniProt P33151) (Fc fusion)
- binding activity (binding probability by AFM): 61%
